± gives the uncertainty stated by the source.
Assay: amyloid nucleation score (Sup35N fusion, yeast selection) (log enrichment); library NNK3; higher = more nucleation; inactive = no reads after selection
Outline: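 DiMSum was used to calculate nucleation scores as log enrichment of output over input reads, centred on the mode score of non-aggregating sequences. Sequences with fewer than 100 input reads were not scored. Input and output came from Illumina sequencing of plasmid inserts in psi-negative yeast expressing peptides of 20 random codons fused to Sup35N, induced 24 hours with 100 μM copper sulfate and then grown 7 days at 30°C on medium lacking adenine and uracil.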

| Substance | amyloid nucleation score |
| --- | --- |
| FFADGARVYFANHVSKAFWF | 1.96 ± 0.083 |
| FFARMTALPLLQILYGSLRA | inactive |
| FFCRKAHLMVVFFSSMRMTG | inactive |
| FFFKSLEVSVTQR | inactive |
| FFGKAT | inactive |
| FFISVLFWNPGISFRITIAA | inactive |
| FFLGVSDSMKFLYLMPTEFD | inactive |
| FFLMKDSLLSSVERSIGVIG | inactive |
| FFLSFRYLKKFSRIGLW | inactive |
| FFLTYTIECVGLNHMILSIM | inactive |
| FFLWVYLLKSFSS | inactive |
| FFNIMCYRHWLKVKLYYIVK | 1.9 ± 0.06 |
| FFPMLIARMDALPRPVNLGY | inactive |
| FFVKEFLVLDICGMTLPFDI | inactive |
| FFWKILALPSE | inactive |
| FFYEPGVPRFYFQLFLLLSF | inactive |
| FFYYMYMFDVITILRVIMGC | inactive |
| FGAMGGCGNRWKFYQRFTDP | inactive |
| FGAVVDYNFSN | -0.695 ± 0.96 |
| FGDAYM | inactive |
| FGFIILDLTR | inactive |
| FGIEQTWSNECSVKTVEMRC | inactive |
| FGKGRHWISAPSRWVRGDFG | inactive |
| FGLGQIRFSHIICLNLILSL | 2.29 ± 0.056 |

| Substance | amyloid nucleation score |
| --- | --- |
| FGMLFIWRK | inactive |
| FGNGSMNRDRSSM | inactive |
| FGPAMCYSLIVQLTSVYRGG | 1.99 ± 0.087 |
| FGQGGALFLWKCMTYFILLG | inactive |
| FGRVNCSSNYRNKMISSTRW | inactive |
| FGSPWPRLQMTQLLIVAMTL | inactive |
| FGVTVSYKWWRWSPLSYCAM | inactive |
| FHGKNVF | inactive |
| FHILIFVKTP | inactive |
| FHLLPKMCLLLSTLIRSGIT | inactive |
| FHVVFCDID | inactive |
| FHVYCVWVRTLSCWRENNVK | 1.5 ± 0.14 |
| FHYLMMTFIV | inactive |
| FICHYEHKKVRHRVYAKAYI | inactive |
| FIDFGIWC | inactive |
| FIDMLSYIAYIVLFFGASFV | inactive |
| FIERLARNQFLNAYSMLDCE | inactive |
| FIFYFCAVLNHYVCVWVRYL | inactive |
| FIGSGSHEIGGHINGKALSS | 0.644 ± 0.19 |
| FIIHHGVYYHAMFMDMLLLM | inactive |
| FILMLVTKLRAHLRGEIRGE | inactive |
| FILSVSYIRVCGARC | 0.097 ± 0.48 |
| FINFELLRSSSNNV | inactive |
| FINRVSPYMRSNRSLVGVSS | inactive |

| Substance | amyloid nucleation score |
| --- | --- |
| FISSSCSFVRCILLVNYKIR | -0.66 ± 1.9 |
| FISWMLAR | 0.9 ± 0.12 |
| FITFLLVVFSKKCVNAK | inactive |
| FIVVPVGVKHDVS | inactive |
| FIYASCDNHKIDKRYVYLLM | inactive |
| FKEWVFCMYECE | inactive |
| FKFKERDHEWYVWFKLKHKS | inactive |
| FKIKKVN | inactive |
| FKNLGNTFGLTKRVCV | inactive |
| FKRHMTINLQRGITLIGIDM | 1.93 ± 0.062 |
| FKSASGRL | inactive |
| FKSYTWMKNLTVGFRIDPSE | inactive |
| FLAIGLFSSNT | 1.73 ± 0.061 |
| FLDQLSVHMQCISLEFNFGV | 2.42 ± 0.068 |
| FLEKGLFSLDISFARDLAEA | inactive |
| FLETVSFPMKVWSL | inactive |
| FLGLLLIYQPNSIE | inactive |
| FLHVRLRHSWVV | inactive |
| FLKLSLDIMFPYQIVYMPTT | inactive |
| FLLMCLMRCTRMETRCISAC | inactive |
| FLLVR | inactive |
| FLMAINFKVQSVPQNHR | 0.211 ± 0.48 |
| FLMSHVII | inactive |
| FLNKITNVSIYLIGTRETDV | 2.81 ± 0.064 |

| Substance | amyloid nucleation score |
| --- | --- |
| FLNLNNMGLSYMAVSLVEG | inactive |
| FLQNFWA | inactive |
| FLQSGN | inactive |
| FLRPV | inactive |
| FLSDSLNARS | inactive |
| FLSIRFV | inactive |
| FLSKTLYIVVSHGVGTSGTG | inactive |
| FLVDVYSCVCSILLWV | inactive |
| FLVFGYASVGAIETWDKTAE | inactive |
| FLYFTHARFHR | 1.79 ± 0.094 |
| FMAQPSLIGLFRSQS | inactive |
| FMDYTARVVHLTAQRFMGLW | 0.189 ± 0.43 |
| FMFNRGAAFNHFTGHTCITY | inactive |
| FMIAQGYHMLYLKHLCTSRN | inactive |
| FMMEACSSDKGEQSMGSWIE | -0.32 ± 0.78 |
| FMSFSRGCTWSLGWA | inactive |
| FMSFYVLLSSTMVTQFAMGP | inactive |
| FMSTDTLRKCLSACMFGPIP | 0.021 ± 0.31 |
| FMSYCMYSLEGNSWHCGP | 3.03 ± 0.061 |
| FMVCCICGKYGMMVSC | inactive |
| FMYLT | inactive |
| FMYNLVVSGSVHSKVDRYSC | 0.629 ± 0.16 |
| FNAPVNVLFR | -0.176 ± 0.6 |
| FNDKSMFDASKAMPFSLIAG | inactive |

| Substance | amyloid nucleation score |
| --- | --- |
| FNFCCLSKQGAFFMGTYCCP | 0.341 ± 0.6 |
| FNIEASYAPVRCCCKPLLAR | inactive |
| FNKDINRPYKCKAH | inactive |
| FNMWIWS | inactive |
| FNPERPKAVDFPILNR | inactive |
| FNVKVVSKSMFYFCSYMPIV | inactive |
| FNVLNVNS | inactive |
| FNVYFGAIVFKEDLPCSYSA | 1.23 ± 0.12 |
| FNYKARYSNPVRDAIYWLQI | inactive |
| FPFSYVYSR | inactive |
| FPGRQIYYILVLAQAFASGF | inactive |
| FQAYDSWNNWSSGFILKYSI | inactive |
| FQLSPTDRVYRDRSAYDVEG | inactive |
| FQMKCNFWKI | 1.24 ± 0.077 |
| FQNLAYMITAAPASGKKTSR | inactive |
| FQNPFTPFGLVVRYVPWLCW | inactive |
| FQRVGRFPSYSTCAGRVATG | inactive |
| FQTGPRYAWGLQTGLNKQVC | inactive |
| FRAWYDTAMSQSLFLCRKGA | inactive |
| FRCSG | inactive |
| FRDIRFAQSMMLSRKIIALL | inactive |
| FRFGSVELLEAGTIQ | 0.043 ± 0.63 |
| FRGKISKEPNCVVYFQQGRP | inactive |

From the supplement of paper PMC12042874
